Measured values from PMC9719539, “Single-molecule characterization of subtype-specific β1 integrin mechanics” (Nature Communications, 2022).

Tested on: BJ-5ta cells
Test: Percentage of spread cells / cell spreading on TGT surfaces
Format: cell-based, human
Conditions: 1 h after seeding
Protocol: Glass coverslips were densely PEGylated to minimize non-specific interactions such as the binding of cell-secreted extracellular matrix proteins. Coverslips cleaned by piranha etching solution (a 3:1 mixture of sulfuric acid and hydrogen peroxide) were incubated in silanization solution (UCT, 1760-24-3; 2% aminosilane and 5% acetic acid in methanol) for 30 min and reacted with a mixture of Polyethylene glycol (PEG) with and without biotin (1:19, 150 mg/ml; Laysan Bio, Biotin-PEG-SVA-5000 and MPEG-SVA-5000) for 4 h. Surfaces were washed thoroughly and dried using nitrogen gas after each step. A 3D-printed dish (PLA) or a silicon gasket (Grace Bio Labs, 103280) was attached to the coverslip to form a dish. Neutravidin (Thermo Fisher scientific, 31000; 0.4 mg/ml) was added to the dish for 10 min and washed out thoroughly. […]
The cells were gently harvested by washing in PBS for 1 min, incubating with 0.05% trypsin for 3 min, and then neutralizing with cell culture medium (FBS 10%). […] A Nikon Eclipse Ti microscope equipped with Xenon arc lamp, Nikon perfect focus system, custom total internal reflection fluorescence microscopy (TIRFM) module, and custom reflection interference contrast microscopy (RICM) module was driven by Elements software. […] Images were recorded using an electron-multiplying charge-coupled device (EMCCD; Andor iXon 888). […]

B1: vitronectin: physiologic macromolecular ligand with RGD motif (protein, UniProt P04004 20-478, looked up)
Vitronectin: DQESCKGRCTEGFNVDKKCQCDELCSYYQSCCTDYTAECKPQVTRGDVFTMPEDEYTVYDDGEEKNNATVHEQVGGPSLTSDLQAQSKGNPEQTPVLKPEEEAPAPEVGASKPEGIDSRPETLHPGRPQPPAEEELCSGKPFDAFTDLKNGSLFAFRGQYCYELDEKAVRPGYPKLIRDVWGIEGPIDAAFTRINCQGKTYLFKGSQYWRFEDGVLDPDYPRNISDGFDGIPDNVDAALALPAHSYSGRERVYFFKGKQYWEYQFQHQPSQEECEGSSLSAVFEHFAMMQRDSWEDIFELLFWGRTSAGTRQPQFISRDWHGVPGQVDAAMAGRIYISGMAPRPSLAKKQRFRHRNRKGYRSQRGHSRGRNQNSRRPSRATWLSLFSSEESNLGANNYDDYRMDWLVPATCEPIQSVFFFSGDKYYRVNLRTRRVDTVDPPYPRSIAQYWLGCPAPGHL
  cell morphology (in words): elongated with irregular lamellipodia
